Article PMC9785301

Biological target: AjFER-D129A/E132A mutant (Apostichopus japonicus)
Assay: crystal structure; M3 at approx. 15 mg/mL in 25 mM Tris-HCl, pH 8.0, 150 mM NaCl; crystals from 0.05 M cadmium sulfate hydrate, 0.1 M HEPES, pH 7.5, 1.0 M sodium acetate trihydrate, 18 °C; assembly of subunits into the cage

A stoichiometry N of 24 was found for AjFER-D129A/E132A mutant in this work.
